Reference: patent US20040121410A1, “Pain signaling molecules” (priority 2002, published 2004)

Assays:
[1] = biological target: MrgC11-GFP (mouse) [GFP: P42212]; assay: cell-based or functional assay
MrgA1-GFP (mouse) = MrgA1-GFP (mouse) (UniProt Q91WW5); assay: cell-based or functional assay

**Q.** Which EC50 of calcium mobilization (FLEXstation assay) [1] does the source give for Dynnorphin-14 (peptide) here?
**A.** 22 nM

**Q.** Met-Enk-RF (peptide) was tested. Which EC50 of calcium mobilization (FLEXstation assay) [1] did it give?
**A.** 545 nM

**Q.** And the fold change of agonist activity against the amidated peptide [1]?
**A.** 4 to 5 fold

**Q.** Which EC50 of calcium mobilization (FLEXstation assay) [1] does the source give for RFRP-3 (peptide) here?
**A.** 113 nM

**Q.** With γ2-MSH (peptide) as the substance, how does the EC50 of calcium mobilization (FLEXstation assay) [1] read?
**A.** 11 nM

**Q.** What about the internalization of the receptor-GFP fusion (confocal microscopy, 1 µM γ2-MSH, 30 min, 37° C.) [1] of the same substance?
**A.** > 90 % of cells

**Q.** What does the source list for FMRF-amide (peptide)?
**A.** EC50 of calcium mobilization (FLEXstation assay) (MrgA1-GFP (mouse)): 420 nM; EC50 of calcium mobilization (HEK-MrgA1 cells) (MrgA1-GFP (mouse)): 420 nM; EC50 of calcium mobilization (FLEXstation assay) [1]: 114 nM; EC50 of calcium mobilization (HEK-MrgC11 cells) [1]: 114 nM

**Q.** Which results are given for (D)F-M-R-Fa (peptide)?
**A.** EC50 of calcium mobilization (HEK-MrgA1 cells) (MrgA1-GFP (mouse)): 882 nM; EC50 of calcium mobilization (HEK-MrgC11 cells) [1]: 108 nM

**Q.** How did the EC50 of calcium mobilization (FLEXstation assay) [1] turn out when AnthoRF-amide (peptide) was run?
**A.** 16 nM

**Q.** Which EC50 of calcium mobilization (FLEXstation assay) (MrgA1-GFP (mouse)) does the source give for FMRF-OH (peptide) here?
**A.** 8200 nM

**Q.** What about the fold decrease in fold change of agonist activity against FMRFa (MrgA1-GFP (mouse)) of the same substance?
**A.** 20 fold

**Q.** And the EC50 of calcium mobilization (FLEXstation assay) [1]?
**A.** 544 nM

**Q.** And the fold change of agonist activity against the amidated peptide [1]?
**A.** 4 to 5 fold

**Q.** For Met-ENK-RFamide (peptide), which EC50 of calcium mobilization (FLEXstation assay) (MrgA1-GFP (mouse)) is on record?
**A.** 5250 nM

**Q.** What about the EC50 of calcium mobilization (FLEXstation assay) [1] of the same substance?
**A.** 133 nM

**Q.** How did the EC50 of calcium mobilization (FLEXstation assay) [1] turn out when Kiss(112-121) (peptide) was run?
**A.** 50 nM

**Q.** Kiss(107-121) (peptide) was tested. Which EC50 of calcium mobilization (FLEXstation assay) [1] did it give?
**A.** 102 nM

**Q.** Which EC50 of calcium mobilization (HEK-MrgC11 cells) [1] does the source give for R-Fa (peptide) here?
**A.** 460 nM

**Q.** γ1-MSH (peptide) was tested. Which EC50 of calcium mobilization (FLEXstation assay) [1] did it give?
**A.** 17 nM

**Q.** Which EC50 of calcium mobilization (FLEXstation assay) [1] does the source give for RFRP-1 (peptide) here?
**A.** 1240 nM

**Q.** How did the EC50 of calcium mobilization (FLEXstation assay) (MrgA1-GFP (mouse)) turn out when BAM3200 (peptide) was run?
**A.** > 10000 nM

**Q.** What about the EC50 of calcium mobilization (FLEXstation assay) [1] of the same substance?
**A.** 300 nM

**Q.** With BAM-15 (peptide) as the substance, how does the EC50 of calcium mobilization (FLEXstation assay) (MrgA1-GFP (mouse)) read?
**A.** 23300 nM

**Q.** What about the EC50 of calcium mobilization (FLEXstation assay) [1] of the same substance?
**A.** 53 nM

**Q.** What does the source list for NPFF (peptide)?
**A.** EC50 of calcium mobilization (FLEXstation assay) (MrgA1-GFP (mouse)): 2140 nM; EC50 of calcium mobilization (FLEXstation assay) [1]: 54 nM

**Q.** Which EC50 of calcium mobilization (HEK-MrgA1 cells) (MrgA1-GFP (mouse)) does the source give for F-M-R-(D)Fa (peptide) here?
**A.** 643 nM

**Q.** Which EC50 of calcium mobilization (HEK-MrgC11 cells) [1] does the source give for R-F-OH (peptide) here?
**A.** 632 nM

**Q.** For BAM-22P (peptide), which EC50 of calcium mobilization (FLEXstation assay) (MrgA1-GFP (mouse)) is on record?
**A.** 2540 nM

**Q.** What about the EC50 of calcium mobilization (FLEXstation assay) [1] of the same substance?
**A.** 26 nM

**Q.** How did the EC50 of calcium mobilization (HEK-MrgA1 cells) (MrgA1-GFP (mouse)) turn out when F-(D)M-R-Fa (peptide) was run?
**A.** 1260 nM

**Q.** What about the fold decrease in fold change of agonist activity against FMRFa (MrgA1-GFP (mouse)) of the same substance?
**A.** 3 fold

**Q.** What about the EC50 of calcium mobilization (HEK-MrgC11 cells) [1] of the same substance?
**A.** 11 nM

**Q.** And the fold change of agonist activity against FMRFa [1]?
**A.** 10 fold

**Q.** For PrRP-20 (peptide), which EC50 of calcium mobilization (FLEXstation assay) [1] is on record?
**A.** 144 nM

**Q.** With BAM-15-amide (peptide) as the substance, how does the EC50 of calcium mobilization (FLEXstation assay) (MrgA1-GFP (mouse)) read?
**A.** 8770 nM

**Q.** What about the fold change of agonist activity against BAM-15 (MrgA1-GFP (mouse)) of the same substance?
**A.** 2.7 fold

**Q.** And the EC50 of calcium mobilization (FLEXstation assay) [1]?
**A.** 479 nM

**Q.** And the fold change of agonist activity against BAM-15 [1]?
**A.** 9 fold

**Q.** Which EC50 of calcium mobilization (FLEXstation assay) (MrgA1-GFP (mouse)) does the source give for FLRF-amide (peptide) here?
**A.** 402 nM

**Q.** And the internalization of the receptor-GFP fusion (confocal microscopy, 3 µM FLRFa, 30 min, 37° C.) (MrgA1-GFP (mouse))?
**A.** > 90 % of cells

**Q.** What about the EC50 of calcium mobilization (FLEXstation assay) [1] of the same substance?
**A.** 157 nM

**Q.** How did the EC50 of calcium mobilization (FLEXstation assay) [1] turn out when NPAF (peptide) was run?
**A.** 282 nM

**Q.** How did the EC50 of calcium mobilization (FLEXstation assay) (MrgA1-GFP (mouse)) turn out when PQRF-amide (peptide) was run?
**A.** > 10000 nM

**Q.** What about the EC50 of calcium mobilization (FLEXstation assay) [1] of the same substance?
**A.** 126 nM

**Q.** How did the EC50 of calcium mobilization (FLEXstation assay) [1] turn out when AF-2 (peptide) was run?
**A.** 130 nM
